Here are results for 8 molecules from article PMC11096365, “Cryo-EM structures of the human Elongator complex at work” (Nature Communications, 2024).

One series deals with H3. The series can be described thus: MST. The conditions noted are these: complex; chains chain;chain;chain.
A further series has as its target TK40. The series can be described thus: MST. Conditions: complex; chains chain;chain;chain.
A further series has as its target ELP1;ELP2;ELP3 wild type (Homo sapiens;Homo sapiens;Homo sapiens, UniProt O95163;Q6IA86;Q9H9T3 1-1332;1-826;1-547, ||). The series can be described thus: MST; MST: 20 mM HEPES pH 7.5, 100 mM NaCl, 5 mM DTT, 0.05% Tween 20; incubated at 4 C 30 min, measured at 25 C; Cy5-tRNA 14 or 30 nM. Cryo-EM: 20 mM HEPES pH 7.5, 100 mM NaCl, 2 mM MgCl2, 2 mM DTT. The conditions noted are these: protein: recombinant;recombinant;recombinant, tags: ;;C-terminal Twin-Strep-Tag, chain copies: 2;2;2, label: internal Cy5 (5% Cy5-CTP), tRNA fold.

For series [1], the target named is T1, human ELP3 with C-terminal Twin-Strep-Tag (human, UniProt Q9H9T3 1-547).
T1 construct: ELP3, human, codon-optimized open reading frame, UniProt Q9H9T3; with the tag 65 kDa as printed; Same material as the ELP3 chain of m4; carries an iron-sulfur cluster in all structures; also called ELP3 with Twin-Strep-Tag (TST); source: SuperSf9-3 insect cells, co-expressed with ELP1 and ELP2 (pBig1a), purified as ELP123 (StrepTrap, heparin, Superose 6); not shown: Twin-Strep-Tag, C-terminal, …
T1 sequence (looked up): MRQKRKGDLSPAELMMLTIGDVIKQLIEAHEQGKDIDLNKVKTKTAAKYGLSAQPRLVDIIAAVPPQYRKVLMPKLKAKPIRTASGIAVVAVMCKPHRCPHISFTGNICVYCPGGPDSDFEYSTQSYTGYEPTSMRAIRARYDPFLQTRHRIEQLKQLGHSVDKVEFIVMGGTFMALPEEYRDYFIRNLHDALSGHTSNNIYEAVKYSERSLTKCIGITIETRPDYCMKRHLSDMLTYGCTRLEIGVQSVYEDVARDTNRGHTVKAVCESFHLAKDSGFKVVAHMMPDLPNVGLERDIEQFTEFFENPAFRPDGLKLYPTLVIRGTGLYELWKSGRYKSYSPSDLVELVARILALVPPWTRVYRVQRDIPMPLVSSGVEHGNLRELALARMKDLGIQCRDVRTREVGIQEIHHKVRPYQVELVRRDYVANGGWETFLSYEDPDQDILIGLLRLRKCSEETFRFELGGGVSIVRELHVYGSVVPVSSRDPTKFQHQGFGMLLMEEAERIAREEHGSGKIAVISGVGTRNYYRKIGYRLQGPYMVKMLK
The series can be described thus: co-purification with SDS-PAGE; ELP1, ELP2 and ELP3-Twin-Strep co-expressed in insect cells; StrepTrap, heparin and Superose 6 columns; SDS-PAGE of the purified subcomplex. The conditions noted are these: partners not purified.

Series [2] concerns the molecule itself. The series is described as follows: cryo-EM structure; co-expressed, co-purified ELP123 (0.6 g/l) without or with tRNA (3.3 µM), acetyl-CoA/DCA/ECA (0.5 mM) and SAM (1 mM); 20 mM HEPES pH 7.5, 100 mM NaCl, 2 mM MgCl2, 2 mM DTT; single-particle analysis.

Usually Kd stands for the concentration at which binding is half-saturated. Turning to “human ELP123 subcomplex (ELP1, ELP2, ELP3), O95163 1-1332; Q6IA86 1-826; Q9H9T3 1-547”, the Kd in the series with H3 and with TK40 was greater than 10 µM throughout.

B1: tRNAGln U33C34UG (structured_RNA)
RNA: GGCCCCAUGGUGUAAUGGUUAGCACUCUGGACUCUGAAUCCAGCGAUCCGAGUUCAAAUCUCGGUGGGACCUCCA
In the case of B1, in the series with ELP1;ELP2;ELP3 wild type, the binding result is recorded as “binds”.

B2: tRNAGln C33C34UG (structured_RNA)
RNA: GGCCCCAUGGUGUAAUGGUUAGCACUCUGGACCCUGAAUCCAGCGAUCCGAGUUCAAAUCUCGGUGGGACCUCCA
For B2, in the series with ELP1;ELP2;ELP3 wild type, the binding result is “binds”.

B3: tRNAGln C33U34UG (structured_RNA)
RNA: GGCCCCAUGGUGUAAUGGUUAGCACUCUGGACCUUGAAUCCAGCGAUCCGAGUUCAAAUCUCGGUGGGACCUCCA
With B3, the binding result with ELP1;ELP2;ELP3 wild type is “binds”.

B4: tRNAGlnCUG (structured_RNA)
RNA: GGUUCCAUGGUGUAAUGGUUAGCACUCUGGACUCUGAAUCCAGCGAUCCGAGUUCAAAUCUCGGUGGAACCUCCA
For B4, the Kd with ELP1;ELP2;ELP3 wild type turned out to be 118 ± 13.8 nM.

B5: human ELP2 (natural protein, UniProt Q6IA86 1-826, looked up)
chain: MVAPVLETSHVFCCPNRVRGVLNWSSGPRGLLAFGTSCSVVLYDPLKRVVVTNLNGHTARVNCIQWICKQDGSPSTELVSGGSDNQVIHWEIEDNQLLKAVHLQGHEGPVYAVHAVYQRRTSDPALCTLIVSAAADSAVRLWSKKGPEVMCLQTLNFGNGFALALCLSFLPNTDVPILACGNDDCRIHIFAQQNDQFQKVLSLCGHEDWIRGVEWAAFGRDLFLASCSQDCLIRIWKLYIKSTSLETQDDDNIRLKENTFTIENESVKIAFAVTLETVLAGHENWVNAVHWQPVFYKDGVLQQPVRLLSASMDKTMILWAPDEESGVWLEQVRVGEVGGNTLGFYDCQFNEDGSMIIAHAFHGALHLWKQNTVNPREWTPEIVISGHFDGVQDLVWDPEGEFIITVGTDQTTRLFAPWKRKDQSQVTWHEIARPQIHGYDLKCLAMINRFQFVSGADEKVLRVFSAPRNFVENFCAITGQSLNHVLCNQDSDLPEGATVPALGLSNKAVFQGDIASQPSDEEELLTSTGFEYQQVAFQPSILTEPPTEDHLLQNTLWPEVQKLYGHGYEIFCVTCNSSKTLLASACKAAKKEHAAIILWNTTSWKQVQNLVFHSLTVTQMAFSPNEKFLLAVSRDRTWSLWKKQDTISPEFEPVFSLFAFTNKITSVHSRIIWSCDWSPDSKYFFTGSRDKKVVVWGECDSTDDCIEHNIGPCSSVLDVGGAVTAVSVCPVLHPSQRYVVAVGLECGKICLYTWKKTDQVPEINDWTHCVETSQSQSHTLAIRKLCWKNCSGKTEQKEAEGAEWLHFASCGEDHTVKIHRVNKCAL
notes: ELP2, human, codon-optimized open reading frame; predicted MW printed as 93 kDa; Same material as the ELP2 chain of m4; The ORF was first cloned into pFastBac1 HT A; source: SuperSf9-3 insect cells, co-expressed with ELP1 and ELP3 (pBig1a), purified as ELP123 (StrepTrap, heparin, Superose 6)
In general, stoichiometry N refers to the number of molecules, sites or subunits per partner or assembly. In the case of B5, the “stoichiometry N” value in series [1] was found to be 1.

B6: tRNASerUGA (structured_RNA)
RNA: GCAGCGAUGGCCGAGUGGUUAAGGCGUUGGACUUGAAAUCCAAUGGGGUCUCCCCGCGCAGGUUCGAACCCUGCUCGCUGCGCCA
Regarding B6, the Kd with ELP1;ELP2;ELP3 wild type (long variable loop) was 138 ± 10.5 nM.

B7: human ELP1 (natural protein, UniProt O95163 1-1332, looked up)
chain: MRNLKLFRTLEFRDIQGPGNPQCFSLRTEQGTVLIGSEHGLIEVDPVSREVKNEVSLVAEGFLPEDGSGRIVGVQDLLDQESVCVATASGDVILCSLSTQQLECVGSVASGISVMSWSPDQELVLLATGQQTLIMMTKDFEPILEQQIHQDDFGESKFITVGWGRKETQFHGSEGRQAAFQMQMHESALPWDDHRPQVTWRGDGQFFAVSVVCPETGARKVRVWNREFALQSTSEPVAGLGPALAWKPSGSLIASTQDKPNQQDIVFFEKNGLLHGHFTLPFLKDEVKVNDLLWNADSSVLAVWLEDLQREESSIPKTCVQLWTVGNYHWYLKQSLSFSTCGKSKIVSLMWDPVTPYRLHVLCQGWHYLAYDWHWTTDRSVGDNSSDLSNVAVIDGNRVLVTVFRQTVVPPPMCTYQLLFPHPVNQVTFLAHPQKSNDLAVLDASNQISVYKCGDCPSADPTVKLGAVGGSGFKVCLRTPHLEKRYKIQFENNEDQDVNPLKLGLLTWIEEDVFLAVSHSEFSPRSVIHHLTAASSEMDEEHGQLNVSSSAAVDGVIISLCCNSKTKSVVLQLADGQIFKYLWESPSLAIKPWKNSGGFPVRFPYPCTQTELAMIGEEECVLGLTDRCRFFINDIEVASNITSFAVYDEFLLLTTHSHTCQCFCLRDASFKTLQAGLSSNHVSHGEVLRKVERGSRIVTVVPQDTKLVLQMPRGNLEVVHHRALVLAQIRKWLDKLMFKEAFECMRKLRINLNLIYDHNPKVFLGNVETFIKQIDSVNHINLFFTELKEEDVTKTMYPAPVTSSVYLSRDPDGNKIDLVCDAMRAVMESINPHKYCLSILTSHVKKTTPELEIVLQKVHELQGNAPSDPDAVSAEEALKYLLHLVDVNELYDHSLGTYDFDLVLMVAEKSQKDPKEYLPFLNTLKKMETNYQRFTIDKYLKRYEKAIGHLSKCGPEYFPECLNLIKDKNLYNEALKLYSPSSQQYQDISIAYGEHLMQEHMYEPAGLMFARCGAHEKALSAFLTCGNWKQALCVAAQLNFTKDQLVGLGRTLAGKLVEQRKHIDAAMVLEECAQDYEEAVLLLLEGAAWEEALRLVYKYNRLDIIETNVKPSILEAQKNYMAFLDSQTATFSRHKKRLLVVRELKEQAQQAGLDDEVPHGQESDLFSETSSVVSGSEMSGKYSHSNSRISARSSKNRRKAERKKHSLKEGSPLEDLALLEALSEVVQNTENLKDEVYHILKVLFLFEFDEQGRELQKAFEDTLQLMERSLPEIWTLTYQQNSATPVLGPNSTANSIMASYQQQKTSVPVLDAELFIPPKINRRTQWKLSLLD
notes: ELP1, human, codon-optimized open reading frame, UniProt O95163; predicted MW printed as 148 kDa; Same material as the ELP1 chain of m4; The ORF was first cloned into pFastBac1 HT A; source: SuperSf9-3 insect cells, co-expressed with ELP2 and ELP3 (pBig1a), purified as ELP123 (StrepTrap, heparin, Superose 6)
Take B7: the “stoichiometry N” value in series [1] came out at 1. The binding result in series [2] is on record as “binds”.
